Experimental data reported in paper PMC6651876, “PEA-15 C-Terminal Tail Allosterically Modulates Death-Effector Domain Conformation and Facilitates Protein–Protein Interactions” (International Journal of Molecular Sciences, 2019).

Target: T1, PEA-15 S104D/S116D double mutant (PEA-15DD) (UniProt Q15121 1-130, S104D | S116D)
T1 construct: PEA-15 (phosphoprotein enriched in astrocytes, 15 kDa), full length, with the phosphomimetic mutations S104D and S116D; Made by site-directed mutagenesis of the PEA-15 plasmid (pET-28b); expressed and purified as the wild type
T1 sequence (Q15121 whole entry S104D/S116D): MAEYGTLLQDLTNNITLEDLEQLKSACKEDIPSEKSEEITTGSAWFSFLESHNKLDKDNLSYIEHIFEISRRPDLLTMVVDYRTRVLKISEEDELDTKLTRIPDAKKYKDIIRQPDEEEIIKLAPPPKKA
Test: NMR titration; data not shown: spectra of uniformly labeled PEA-15DD with unlabeled FADD at molar ratios 1:0.5, 1:1 and 1:2; 20 mM sodium phosphate pH 7.0, 150 mM NaCl, 1 mM DTT
Conditions: both partners purified

B1: Fas-associated death domain (FADD) protein, full length (natural protein, UniProt Q13158 1-208, looked up)
chain: MDPFLVLLHSVSSSLSSSELTELKFLCLGRVGKRKLERVQSGLDLFSMLLEQNDLEPGHTELLRELLASLRRHDLLRRVDDFEAGAAAGAAPGEEDLCAAFNVICDNVGKDWRRLARQLKVSDTKIDSIEDRYPRNLTERVRESLRIWKNTEKENATVAHLVGALRSCQMNLVADLVQEVQQARDLQNRSGAMSPMSWNSDASTSEAS
notes: FADD (Fas-associated death domain protein), full length; Cloned into pET-28b between NdeI and BamHI
- stoichiometry N: 1
